Assay results taken from patent publication US9649360B2, “Pharmaceutical composition for the treatment and/or prevention of disease involving abnormal accumulation of amyloid β protein” (SHIGA UNIVERSITY OF MEDICAL SCIENCE, priority 2012, dated 2017).

Legend:
[1] = tested on: γ-secretase; experiment: AICD production in transfected HEK293 cells treated with NEM (immunoblot); format: cell-based, human; conditions: NEM for 60 minutes, n=3
Experimental: (§1) Brain homogenates were lysed in a buffer (25 mM HEPES, pH 7.5, 150 mM NaCl, 2 mM EDTA, protease inhibitor cocktail and 10% glycerol) containing 1% Nonidet P40. Immunoblotting was performed as previously described (Nishimura, M., et al. Nat Med 5, 164-169 (1999)).
HEK293 cells transfected with control, ILEI siRNA, or ILEI cDNA (respectively denoted by ILEI-k/d and ILEI-oe in the figure) were treated with N-ethyl maleimide (NEM) for 60 minutes to block degradation of AICD. The AICD production was inhibited by a treatment with DAPT, which is a γ-secretase inhibitor (D in the figure). β-Actin was used as a loading control. The graphs show quantified AICD signal intensities (n=3).

[2] = tested on: endogenous Notch-1; experiment: γ-secretase cleavage of endogenous Notch-1 in mouse embryonic fibroblasts (NICD immunoblot); format: cell-based; conditions: MEFs, EDTA 1.5 mM; DAPT 1 μM; n=3
Experimental: as §1
Next, γ-secretase cleavage of endogenous Notch-1 in mouse embryonic fibroblasts (MEFs) was examined (FIG. 1d). Treatment of MEF with EDTA (1.5 mM) induces cleavage of TMIC (transmembrane/intracellular Notch) and generates NEXT (Notch extracellular truncation). NEXT is further cleaved by γ-secretase to release NICD (Notch intracellular domain). The NICD production was inhibited by DAPT (1 μM). β-Actin was used as a loading control. The graphs show quantified NICD signal intensities (n=3).

[3] = tested on: stable ILEI-knockdown HEK293 cells; experiment: Aβ secretion after adding purified ILEI-His to culture solution of stable ILEI-knockdown HEK293 cells; format: cell-based, human
Experimental: Using this cell culture solution, the measurement of secretory Aβ from the cells was performed according to ELISAs specific for human Aβ40 and Aβ42 (Wako Pure Chemical Industries).
Purified ILEI-His was added into the culture solution of stable ILEI-knockdown HEK293 cells at the indicated concentration (μg ml^−1).

[4] = tested on: ILEI-Tg mice; experiment: Aβ40 and Aβ42 in brain homogenate fractions of ILEI-Tg mice (ELISA); format: in vivo, mouse; conditions: Tris-buffered saline-soluble and insoluble fractions, 8 months old, n=5, versus wild-type littermates
[5] = tested on: ILEI-Tg mice; conditions: mouse, in vivo
[6] = tested on: ILEI-Tg mice; experiment: Immunoblotting of brain homogenates of ILEI-Tg mice (APP-CTF, NICD); format: in vivo, mouse; conditions: 6-week-old ILEI-Tg mice versus wild-type littermates

C[C@H](NC(=O)Cc1cc(F)cc(F)c1)C(=O)N[C@H](C(=O)OC(C)(C)C)c1ccccc1 [DAPT, reference compound]
AICD production [1]: inhibited
NICD production (Notch cleavage by γ-secretase) [2]: inhibited

B1: ILEI-His: purified recombinant ILEI protein from the pcDNA6/V5-His construct, added from outside the cells (protein, UniProt Q92520 25-227, looked up)
Protein FAM3C: QVFEIKMDASLGNLFARSALDTAARSTKPPRYKCGISKACPEKHFAFKMASGAANVVGPKICLEDNVLMSGVKNNVGRGINVALANGKTGEVLDTKYFDMWGGDVAPFIEFLKAIQDGTIVLMGTYDDGATKLNDEARRLIADLGSTSITNLGFRDNWVFCGGKGIKTKSPFEQHIKNNKDTNKYEGWPEVVEMEGCIPQKQD
modifications: V5-His tag
notes: purified recombinant ILEI protein from the pcDNA6/V5-His construct, added from outside the cells
Aβ secretion ([3]; at a concentration of 7 μg ml^−1): decreased to almost the same extent as in the case of introducing siRNA-resistant ILEI cDNA
Aβ secretion ([3]; purified protein added to the culture solution at the indicated concentrations (μg ml^−1)): diminished Aβ secretion in a dose-dependent manner

B2: ILEI: interleukin-like epithelial-mesenchymal transition inducer, secretory protein, SEQ ID NO: 1 (mature: SEQ ID NO: 2) (protein, listed as Homo sapiens)
chain: MRVAGAAKLVVAVAVFLLTFYVISQVFEIKMDASLGNLFARSALDTAARSTKPPRYKCGISKACPEKHFAFKMASGAANVVGPKICLEDNVLMSGVKNNVGRGINVALANGKTGEVLDTKYFDMWGGDVAPFIEFLKAIQDGTIVLMGTYDDGATKLNDEARRLIADLGSTSITNLGFRDNWVFCGGKGIKTKSPFEQHIKNNKDTNKYEGWPEVVEMEGCIPQKQD
Aβ40 level in brain homogenates [4]: significantly reduced
Aβ42 level in brain homogenates [4]: significantly reduced
development, fertility and gross morphology [5]: normal development and fertility without any gross morphological defect
NICD levels in the brains [6]: no alteration
decrease in APP-CTF levels in the brains [6]: 30%
NICD production (Notch cleavage by γ-secretase) [2]: does not perturb Notch cleavage
